How the values were obtained:
[1] = compared with myristic acid; cited from earlier work
[2] = test system: p60^v-src; details: membrane versus cytosolic fractions; cited from earlier work
[3] = substrate: CCCCCCCCCCCCCC(=O)SCCNC(=O)CCNC(=O)[C@H](O)C(C)(C)COP(=O)(O)OP(=O)(O)OC[C@H]1O[C@@H](n2cnc3c(N)ncnc32)[C@H](O)[C@@H]1OP(=O)(O)O; experiment: cells, lysate or membranes named; details: other: fatty acyl-CoA substrate varied, 60 μM GNAAAARR
[4] = substrate: C[C@H](NC(=O)[C@H](C)NC(=O)[C@H](CC(N)=O)NC(=O)CN)C(=O)N[C@@H](CO)C(=O)N[C@@H](C)C(=O)N[C@@H](CCCNC(=N)N)C(=O)N[C@@H](CCCNC(=N)N)C(N)=O; experiment: coupled in vitro assay for NMT activity, 45 kDa E. coli NMT; assay type: biochemical, S. cerevisiae; details: other: peptide substrate varied, 15 μM myristate
Description: (§1) In vitro assay system for NMT activity. To assess the peptide and acyl-CoA substrate specificities of E. coli-derived S. cerevisiae NMT, crude lysates or partially purified enzyme preparations were added to a coupled in vitro assay system [Towler and Glaser, Proc. Natl. Acad. Sci. USA 83, 2812-2816 (1986)]. The first step of this assay involves enzymatic conversion of radiolabeled fatty acids to their CoA thioesters by Pseudomonas acyl-CoA ligase. This ligase is largely nonspecific for fatty acid substrates [Shimizu et al., Anal. Biochem. 107, 193-198 (1980)]. Octapeptide substrates and NMT were then added to produce acylpeptides. Acylpeptides were purified from the reaction mixture by trichloroacetic acid/methanol precipitation and C18 reverse phase HPLC using a linear gradient of acetonitrile in water [Towler and Glaser, Proc. Natl. Acad. Sci. USA 83, 2812-2816 (1986)].
(§2) To obtain a homogenous preparation of the enzyme, E. coli-produced NMT was further purified by Mono S fast protein liquid chromatography (FPLC).
(§3) The peptide Km and Vmax values shown in the above Table I are averages obtained from 4- or 5-point Lineweaver-Burke plots. These plots were produced using data generated in at least three independent in vitro NMT assays. Varying concentrations of peptides were assayed with 15 μM myristate to determine peptide Km and Vmax values. […] Yeast NMT was from a 570 fold purified preparation [Towler et al., Proc. Natl. Acad. Sci. USA 84, 2708-2712 (1987)]. Synthetic peptide substrates are represented by their conventional one letter amino acid code. […] ND=not determined.

[5] = substrate: CCCCCCCCCCCCCCCC(=O)SCCNC(=O)CCNC(=O)[C@H](O)C(C)(C)COP(=O)(O)OP(=O)(O)OC[C@H]1O[C@@H](n2cnc3c(N)ncnc32)[C@H](O)[C@@H]1OP(=O)(O)O; experiment: as above; assay type: biochemical, S. cerevisiae; details: other: fatty acyl-CoA substrate varied, 60 μM GNAAAARR
Description: as §1, §2, §3

[6] = substrate: CCCOCCCCCCCCCC(=O)SCCNC(=O)CCNC(=O)[C@H](O)C(C)(C)COP(=O)(O)OP(=O)(O)OC[C@H]1O[C@@H](n2cnc3c(N)ncnc32)[C@H](O)[C@@H]1OP(=O)(O)O; experiment: as above; assay type: biochemical, S. cerevisiae; details: other: fatty acyl-CoA substrate varied, 60 μM GNAAAARR
Description: as §1, §2, §3

[7] = substrate: C[C@H](NC(=O)[C@H](C)NC(=O)[C@H](CC(N)=O)NC(=O)CN)C(=O)N[C@@H](CO)C(=O)N[C@@H](C)C(=O)N[C@@H](CCCNC(=N)N)C(=O)N[C@@H](CCCNC(=N)N)C(N)=O; experiment: coupled in vitro assay for NMT activity, Total E. coli NMT; assay type: biochemical, S. cerevisiae; details: other: peptide substrate varied, 15 μM myristate
Description: as §1
as §3, with “(1987)].” for “(1987)]. Synthetic peptide substrates are represented by their conventional one letter amino acid code.”

[8] = substrate: C[C@H](NC(=O)[C@H](C)NC(=O)[C@H](C)NC(=O)[C@H](CC(N)=O)NC(=O)CN)C(=O)N[C@@H](C)C(=O)N[C@@H](CCCNC(=N)N)C(=O)N[C@@H](CCCNC(=N)N)C(N)=O; experiment: as above; assay type: biochemical, S. cerevisiae; details: other: peptide substrate varied, 15 μM myristate
Description: as §1
as §3, with “(1987)].” for “(1987)]. Synthetic peptide substrates are represented by their conventional one letter amino acid code.”

Molecule: CCCOCCCCCCCCCC(=O)O [10-(Propoxy)decanoic acid]
- hydrophobicity [1]: reduced hydrophobicity (comparable to decanoic acid)
- effect on p60v-src distribution when incorporated in vivo [2]: significant redistribution of the protein from membrane to cytosolic fractions

B1: 45 kDa E. coli NMT (NMT missing the NH2-terminal 39 residues) (Saccharomyces cerevisiae S288C) (protein)
chain: FWRTQPVKDFDEKVVEEGPIDKPKTPEDISDKPLPLLSSFEWCSIDVDNKKQLEDVFVLLNENYVEDRDAGFRFNYTKEFFNWALKSPGWKKDWHIGVRVKETQKLVAFISAIPVTLGVRGKQVPSVEINFLCVHKQLRSKRLTPVLIKEITRRVNKCDIWHALYTAGIVLPAPVSTCRYTHRPLNWKKLYEVDFTGLPDGHTEEDMIAENALPAKTKTAGLRKLKKEDIDQVFELFKRYQSRFELIQIFTKEEFEHNFIGEESLPLDKQVIFSYVVEQPDGKITDFFSFYSLPFTILNNTKYKDLGIGYLYYYATDADFQFKDRFDPKATKALKTRLCELIYDACILAKNANMDVFNALTSQDNTLFLDDLKFGPGDGFLNFYLFNYRAKPITGGLNPDNSNDIKRRSNVGVVML
notes: S2A lies in the removed part
- Km [3]: 0.36 µM
- Km [4]: 0.38 µM
- Km [5]: 0.96 µM
- Km [6]: 1.2 µM

B2: E. coli-derived S. cerevisiae NMT (Total E. coli NMT) (Saccharomyces cerevisiae S288C; S2A) (protein)
chain: MAEEDKAKKLENLLKLLQLNNDDTSKFTQEQKKAMKDHKFWRTQPVKDFDEKVVEEGPIDKPKTPEDISDKPLPLLSSFEWCSIDVDNKKQLEDVFVLLNENYVEDRDAGFRFNYTKEFFNWALKSPGWKKDWHIGVRVKETQKLVAFISAIPVTLGVRGKQVPSVEINFLCVHKQLRSKRLTPVLIKEITRRVNKCDIWHALYTAGIVLPAPVSTCRYTHRPLNWKKLYEVDFTGLPDGHTEEDMIAENALPAKTKTAGLRKLKKEDIDQVFELFKRYQSRFELIQIFTKEEFEHNFIGEESLPLDKQVIFSYVVEQPDGKITDFFSFYSLPFTILNNTKYKDLGIGYLYYYATDADFQFKDRFDPKATKALKTRLCELIYDACILAKNANMDVFNALTSQDNTLFLDDLKFGPGDGFLNFYLFNYRAKPITGGLNPDNSNDIKRRSNVGVVML
notes: intact 53 kDa (codon 2 Ser to Ala from cloning) plus 45 kDa truncated form
- Km [7]: 0.103 µM
- Km [8]: 65.8 µM

Source: patent US5436138A, “Method for protein N-myristoylation” (Washington University, priority 1993, dated 1995)
